Results published in patent publication US20170368132A1 (published 2017).

Experiments:
[1] = target: T1, H. sapiens Rad51 (H. sapiens, UniProt Q06609 1-339); experiment: yeast two-hybrid, growth on -ADE -HIS
T1 construct: Expressed in yeast as a two-hybrid fusion; also called human RAD51
T1 sequence: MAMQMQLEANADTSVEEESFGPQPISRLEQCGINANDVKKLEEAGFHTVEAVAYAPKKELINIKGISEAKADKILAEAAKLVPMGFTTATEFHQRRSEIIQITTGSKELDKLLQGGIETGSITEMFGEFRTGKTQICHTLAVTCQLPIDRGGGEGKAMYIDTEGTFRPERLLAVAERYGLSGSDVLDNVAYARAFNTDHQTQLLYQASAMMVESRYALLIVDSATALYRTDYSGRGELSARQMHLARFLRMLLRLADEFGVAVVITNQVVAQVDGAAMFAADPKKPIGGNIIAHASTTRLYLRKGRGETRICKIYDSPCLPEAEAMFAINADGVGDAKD
Procedure: (§1) RAD51-binding peptides were tested for ability to bind RAD51 of several different species using a “conventional” Y2H assay, where interaction between the two-hybrid pair drove expression of ADE2 and HIS genes. In this Y2H assay the two-hybrid pair was RAD51 and the compound 5 peptide sequence (SEQ ID NO.:5), so that cells having the interaction would survive (+) and cells not having the interaction would die (−) on selective media (−ADE, −HIS).

[2] = target: T2, G. gallus Rad51 (G. gallus, UniProt P37383 1-339, limits assumed); experiment: yeast two-hybrid, growth on -ADE -HIS
T2 construct: Y2H fusion in yeast
T2 sequence (looked up): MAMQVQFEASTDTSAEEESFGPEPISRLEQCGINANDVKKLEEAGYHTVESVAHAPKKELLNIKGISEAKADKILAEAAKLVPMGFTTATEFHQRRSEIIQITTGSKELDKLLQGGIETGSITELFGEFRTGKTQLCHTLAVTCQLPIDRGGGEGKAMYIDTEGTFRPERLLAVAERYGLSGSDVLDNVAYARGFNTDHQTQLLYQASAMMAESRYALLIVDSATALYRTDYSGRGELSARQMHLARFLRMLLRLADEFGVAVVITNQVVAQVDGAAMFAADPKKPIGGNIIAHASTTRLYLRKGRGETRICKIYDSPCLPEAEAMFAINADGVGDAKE
Procedure: as §1

[3] = target: T3, S. pombe Rad51 (S. pombe, UniProt P36601 1-365, limits assumed); experiment: yeast two-hybrid, growth on -ADE -HIS
T3 construct: Y2H fusion in yeast
T3 sequence (looked up): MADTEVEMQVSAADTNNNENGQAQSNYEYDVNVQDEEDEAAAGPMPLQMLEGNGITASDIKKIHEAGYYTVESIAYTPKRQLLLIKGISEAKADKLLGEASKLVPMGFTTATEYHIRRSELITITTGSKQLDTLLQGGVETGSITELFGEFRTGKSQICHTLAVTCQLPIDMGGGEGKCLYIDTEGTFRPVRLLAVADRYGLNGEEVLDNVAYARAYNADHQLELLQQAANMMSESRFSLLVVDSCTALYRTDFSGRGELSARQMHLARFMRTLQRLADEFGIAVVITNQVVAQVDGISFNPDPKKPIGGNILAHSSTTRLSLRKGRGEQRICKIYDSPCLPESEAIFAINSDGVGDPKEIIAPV
Procedure: as §1

[4] = target: T4, S. cerevisiae Rad51 (S. cerevisiae, UniProt P25454 1-400, limits assumed); experiment: yeast two-hybrid, growth on -ADE -HIS
T4 construct: Y2H fusion in yeast
T4 sequence (looked up): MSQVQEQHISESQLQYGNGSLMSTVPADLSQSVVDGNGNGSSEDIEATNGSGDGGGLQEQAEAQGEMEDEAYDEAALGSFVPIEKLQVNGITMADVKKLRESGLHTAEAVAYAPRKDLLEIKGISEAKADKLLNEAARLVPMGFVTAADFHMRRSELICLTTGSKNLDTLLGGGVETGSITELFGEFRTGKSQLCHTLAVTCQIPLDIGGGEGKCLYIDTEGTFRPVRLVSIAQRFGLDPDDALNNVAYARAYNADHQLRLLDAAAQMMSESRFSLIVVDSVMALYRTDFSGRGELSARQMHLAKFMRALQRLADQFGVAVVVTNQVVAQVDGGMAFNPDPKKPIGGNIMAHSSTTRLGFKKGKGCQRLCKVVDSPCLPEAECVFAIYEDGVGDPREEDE
Procedure: as §1

[5] = target: T5, Rad51 (A190L; A192L) (human, UniProt Q06609 1-339); experiment: yeast two-hybrid, human RAD51 mutant
T5 construct: Human RAD51 mutant tested by Y2H; also called human RAD51 A190L A192L
T5 chain: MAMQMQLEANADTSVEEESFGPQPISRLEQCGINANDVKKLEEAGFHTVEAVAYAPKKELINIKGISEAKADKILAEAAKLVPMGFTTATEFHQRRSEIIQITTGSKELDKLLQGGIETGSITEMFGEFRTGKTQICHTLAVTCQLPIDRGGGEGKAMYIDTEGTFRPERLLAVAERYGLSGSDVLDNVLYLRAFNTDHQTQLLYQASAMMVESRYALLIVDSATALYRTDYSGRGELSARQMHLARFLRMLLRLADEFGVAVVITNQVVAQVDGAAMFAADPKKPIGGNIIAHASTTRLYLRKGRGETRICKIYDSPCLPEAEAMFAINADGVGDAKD
Procedure: (§2) The ability of peptides to bind human RAD51 with various mutations was then tested by Y2H assay. […] While mutations affecting BRCA2 binding had no effect on peptide binding, mutations that affected RAD51-AP1 binding did disrupt peptide binding. As these mutations were at residues 202, 205, and 206, they were consistent with the previous fusion data showing binding somewhere in the 190-218 region, and indicated the peptide SEQ ID NO.:5 contacts at least residues 202, 205, and 206 of RAD51.

[6] = target: T6, Rad51 (F86E; A89E) (human, UniProt Q06609 1-339); experiment: yeast two-hybrid, human RAD51 mutant
T6 construct: Human RAD51 mutant tested by Y2H; also called human RAD51 F86E A89E
T6 chain: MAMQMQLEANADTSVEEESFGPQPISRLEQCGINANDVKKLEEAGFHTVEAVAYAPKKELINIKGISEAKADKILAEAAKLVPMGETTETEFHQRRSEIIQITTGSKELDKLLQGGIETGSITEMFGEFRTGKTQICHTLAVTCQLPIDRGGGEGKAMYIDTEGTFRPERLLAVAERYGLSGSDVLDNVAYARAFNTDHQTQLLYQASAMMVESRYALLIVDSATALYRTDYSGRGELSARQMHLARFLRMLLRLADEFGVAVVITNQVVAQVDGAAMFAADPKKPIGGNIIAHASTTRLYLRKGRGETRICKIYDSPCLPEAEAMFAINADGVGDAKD
Procedure: as §2

Binder: KRRRRRRRKRLGVRLRVSRML [compound 5 peptide sequence (SEQ ID NO.:5)]
- binding result [1]: binds
- binding result [2]: binds
- binding result [3]: binds
- binding result [4]: no binding
- binding result [5]: binds
- binding result [6]: binds
